{
  "source": "patent US9091696B2",
  "about": "“Modulation of NR2F6 and methods and uses thereof” (Regen Biopharma, Inc., priority 2008, dated 2015)",
  "molecules": {"B1": {"name": "Mus shNR2F6: short-hairpin RNA targeting mouse NR2F6, SEQ ID NO: 5, cloned into the pSiren vector (nucleic acid)", "DNA": "GATCCGCATTACGGCGTGTTCACCTTCAAGAGAGGTGAACACGCCGTAATGCTTTTTTCTAGAG"}, "B2": {"name": "Human shNR2F6: short-hairpin RNA targeting human NR2F6, SEQ ID NO: 6, cloned into the pSiren vector (nucleic acid)", "DNA": "GATCCGCATTACGGTGTCTTCACCTTCAAGAGAGGTGAAGACACCGTAATGCTTTTTTCTAGAG"}},
  "key": {"U937 GFP cells": {"system": "U937 GFP cells", "test": "Cell cycle analysis by propidium iodide DNA content after atRA", "assay_type": "cell-based, human", "conditions": "control U937 GFP cells; FIG. 3B", "method": "Differentiation was induced in the U937 cell line by treatment with 10 nM TPA (Sigma), 1 uM ATRA (Sigma), or 1.25% v/v DMSO (Sigma) respectively. Immunostaining for the maturation marker CD11b (eBioscience) was performed for twenty minutes in the dark according to manufacturer's instructions and cells were analysed by flow cytometry. Nitroblue tetrazolium (NBT) reduction test (Sigma) was performed according to the manufacturer's instructions, with a minimum of 300 cells scored per slide in three different fields of view. Each experimental timepoint was conducted in triplicate.\nOverexpression of NR2F6 is able to override the growth arrest associated with differentiation and maturation, in particular maturation and differentiation induced by all-trans retinoic acid (FIG. 3). […] Growth of U937 cells expressing either GFP of NR2F6-IRES-GFP was monitored by counting using trypan blue following treatment of cells with atRA (FIG. 3A). U937 cells expressing either GFP of NR2F6-IRES-GFP were treated with atRA. DNA content was assessed using propidium iodide in order to determine which phase of the cell cycle the cells in each respective population resided in (FIG. 3B)."}, "32Dcl3-NR2F6 cells": {"system": "32Dcl3-NR2F6 cells", "test": "G-CSF induced differentiation of NR2F6 over-expressing cells after HDAC inhibitor pretreatment (cell surface CD11b)", "assay_type": "cell-based, mouse", "conditions": "pretreatment prior to G-CSF; non-treated 32Dcl3-NR2F6 cells failed to differentiate; FIG. 32", "description": "It has been reported that NR2F6 exerts its regulatory effects primarily as a transcriptional repressor (Liu, X., Huang, X., and Sigmund, C. D. (2003). Identification of a nuclear orphan receptor (Ear2) as a negative regulator of renin gene transcription. Circ Res 92, 1033-1040.). The repressor activity of nuclear receptors is mediated by recruitment of corepressors with histone deacetylase (HDAC) activity; we therefore evaluated the importance of this mechanism in the effects of NR2F6 on haematopoiesis and evaluated weather the activity of NR2F6 can be modulated with an HDAC inhibitor. 32Dcl3-NR2F6 cells were incubated with the non-specific histone deacetylase inhibitor sodium butyrate prior to treatment with G-CSF."}, "[1]": {"system": "32Dcl3 mouse hematopoietic cells", "test": "shRNA knock down of NR2F6, differentiation by cytospins and flow cytometry", "assay_type": "cell-based", "conditions": "vs pSiren universal negative control, FIG. 26", "method": "Knock down of NR2F6 using short-hairpin RNAs induces differentiation and maturation of 32Dcl3 mouse hematopoietic cells (FIG. 26).\n(§1) Oligonucleotides targeting human or mouse EAR-2 were synthesized (Sigma), annealed and cloned into the pSiren vector (Clontech), after which sequence was verified (The Centre for Applied Genomics, Toronto). Virus was prepared by transient transfection of plasmid in the 293GPG cell line as described above. Knockdown was confirmed by western blot for these vectors in cell lines and by qPCR in bone marrow cells (data not shown and (17))."}, "Murine bone marrow cells": {"system": "Murine bone marrow cells", "test": "shRNA knock down of NR2F6 in ex vivo bone marrow suspension culture (flow cytometry, morphology)", "assay_type": "cell-based, mouse", "method": "Murine bone marrow cells were cultured in conditions that preserved stem cell maintenance (c-kit ligand; thrombopoietin; and Flt3 ligand in OP9 conditioned medium) and transduced with either an shRNA targeting NR2F6 or a scrambled control shRNA. Following seven days in culture cells were analysed by flow cytometry."}, "bone marrow cells": {"system": "bone marrow cells", "test": "Methylcellulose colony formation and replating after silencing of EAR-2 (NR2F6)", "assay_type": "cell-based, mouse", "conditions": "cytokines promoting multilineage or erythroid progenitor differentiation; FIG. 58", "method": "We assessed the effects of silencing of EAR-2 expression on colony formation in vitro. […] In replating experiments we observed a significant decrease in secondary colonies in cells in which EAR-2 expression was silenced FIG. 59.\n• The 293GPG retroviral packaging cell line (a gift of Richard Mulligan, Harvard University) was grown in DMEM medium supplemented with 10% FBS, tetracycline ([…]), G418 (0.3 mg/mL) and puromycin ([…]). Human EAR-2 cDNA (a kind gift from John Ladias, Harvard University) or Mus EAR-2 cDNA (a kind gift from, Curt D. Sigmund, University of Iowa) was subcloned into the pcDNA3.1V5/HIS vector (Invitrogen). […] Real time PCR was performed according to manufacturer's instructions using SYBR Green Master Mix (Applied Biosystems, Foster City, Calif.) and analyzed using the delta-delta CT method (16). Bone Marrow Transduction • Using the retroviral constructs described above, we forced expression of EAR-2 in primary murine BM cells and monitored the effects on differentiation using colony assays. […] Forty-eight hours after retroviral infection GFP-positive cells were collected by fluorescence activated cell sorting (FACS). […] GFP-positive cells were purified by fluorescence activated cell sorting (FACS) and cultured in methylcellulose medium containing hematopoietic growth factors that favored multilineage differentiation. […]"}, "[2]": {"system": "U937 human myelomonocytic leukemia cells", "test": "shRNA knock down of NR2F6, differentiation by cytospins and flow cytometry", "assay_type": "cell-based", "conditions": "vs pSiren universal negative control, FIG. 27", "method": "Knock down of NR2F6 using short-hairpin RNAs induces terminal differentiation, blood cell maturation death of U937 human leukemia cells (FIG. 27).\nas §1"}},
  "data": [
    {"molecule": "CC1=C(/C=C/C(C)=C/C=C/C(C)=C/C(=O)O)C(C)(C)CCC1", "note": "[atRA, all-trans retinoic acid]", "values": [
      {"measurement": "number of cells in S/G2/M phases of the cell cycle", "setting": "U937 GFP cells", "value": "drastic decrease in the number of cells in S/G2/M phases"}
    ]},
    {"molecule": "CCCC(=O)[O-].[Na+]", "note": "[sodium butyrate]", "values": [
      {"measurement": "G-CSF induced differentiation (cell surface CD11b expression)", "setting": "32Dcl3-NR2F6 cells", "value": "showed recovery of G-CSF induced differentiation"}
    ]},
    {"molecule": "B1", "values": [
      {"measurement": "myeloid cell differentiation", "setting": "[1]", "value": "induces spontaneous myeloid cell differentiation"},
      {"measurement": "differentiation and maturation of bone marrow cells into neutrophils", "setting": "Murine bone marrow cells; flow cytometry (FIG. 30) and morphology (FIG. 31)", "value": "promoted the differentiation and maturation of bone marrow cells into neutrophils"},
      {"measurement": "number of immature cells (devoid of markers of lineage commitment)", "setting": "Murine bone marrow cells; seven days in culture, vs scrambled shRNA control, flow cytometry, FIG. 28", "value": "dramatically reduced the number of immature cells"},
      {"measurement": "number of stem cells (ckit+Sca-1+lineage-, KSL cells)", "setting": "Murine bone marrow cells; seven days in culture, vs scrambled shRNA control, flow cytometry, FIG. 29", "value": "dramatically reduced"},
      {"measurement": "colony size in methylcellulose", "setting": "bone marrow cells", "value": "increase in the size of colonies"}
    ]},
    {"molecule": "B2", "values": [
      {"measurement": "myeloid cell differentiation", "setting": "[2]", "value": "induces spontaneous myeloid cell differentiation"}
    ]}
  ]
}
